Biological target: SERINC3(iHA), Serine incorporator 3 with an internal HA tag (UniProt Q13530)

Substance | SERINC3 internalization from the cell surface, relative to wild type NL4.3 Nef (flow cytometry, co-transfected CEM T cells)
HIV-1 NL4.3 Nef S8R (from UniProt P03406 1-206) (natural protein) | 50%
HIV-1 NL4.3 Nef I11G (from UniProt P03406 1-206) (natural protein) | 0%

Reference: article PMC7515180
